Experimental data published in patent publication US20240117061A1 (WUHAN YZY BIOPHARMA, published 2024).

B1: human-mouse chimeric antibody c-mAb2 (antibody, human IgG1, V domains shown)
VH: QVQLQQSDAELVKPGTSVKISCKVSGYTFTDHTIHWMKQRPEQGLEWIGYIYPRNGNTKYNEKFKGKATLTADKSSSTAYMHLNSLTSEDSAVYFCARYDYDGYFDVWGTGTTVTVSS
VL: DVVMTQTPLSLPVSLGDQASISCRSSQSHVHSDGHTYLHWYLQKPGQSPELLIYKVSNRFSGVPDRFSGSGSGTDFTLKISRVEAEDLGVYFCSQNTHFPWTFGGGTKLEIK
notes: not shown: human IgG1 heavy chain constant region, GenBank No. AK303185.1; human kappa light chain constant region, GenBank No. MG815648.1
B2: human-mouse chimeric antibody c-mAb3 (antibody, human IgG1, V domains shown)
VH: EVQLQQSGPELVKPGASVKILCKASGYTITDYNMDWVKRSHGKSLEWIGNINPHNGGSIYNQKFKGKATLTVDKSSSTAFMELRSLTSEDTAVYYCARGDATLVLDYWGQGTSLTVSS
VL: DIVLTQSPASLAVSLGQRATISCRASKSVSTSGLSYMHWYQQKPGQPPKVLIYLASNLESGVPARFSGSGSGTDFTLNIHPVEEEDAATYYCQHSRELPPTFGAGTKLELK
notes: as for B1

Columns and labels:
[1] = molecular target: T1, human BCMA on cells (NCI-H929, U266B1, HEK293 huBCMA) (human, UniProt Q02223 1-184); assay: flow cytometry on NCI-H929 cells
T1 construct: whole, on cells; also called cell surface BCMA antigen
T1 sequence (looked up): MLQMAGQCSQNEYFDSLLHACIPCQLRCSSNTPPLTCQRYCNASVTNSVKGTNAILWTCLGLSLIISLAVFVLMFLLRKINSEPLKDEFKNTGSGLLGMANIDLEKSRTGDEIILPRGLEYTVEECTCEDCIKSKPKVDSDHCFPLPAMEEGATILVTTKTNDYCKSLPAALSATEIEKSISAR
Description: Procedures: Preparation of cell suspensions: The cells were resuspended in PBS, and the cell density was adjusted to 2×10⁵ cells/well. Mouse antibodies were added to a 96-well plate at […] and serially 3-fold diluted from 3000 nM. The plate was incubated for 1 h at 4° C. 150 μL of precooled PBS containing 1% of FBS was added into the 96-well plate after the co-incubation with the primary antibody was finished. The mixtures were centrifuged at 300×g for 5 min and the supernatants were discarded. The above procedures were repeated once. The fluorescent secondary antibody PE […] (Biolegend, 409304) was added at 80 μL/well. The plate was incubated at 4° C. for 30 min. 150 μL of precooled PBS containing 1% of FBS was added into the 96-well plate after the co-incubation with the secondary antibody was finished. The mixtures were uniformly mixed with a pipette. The 96-well plate was centrifuged at 300×g for 5 min in a plate centrifuge and the supernatants were removed. The above procedures were repeated once. The cells were resuspended in 100 μL of PBS containing 1% of FBS and detected on a flow cytometry (BD Accuri™ C6).

[2] = molecular target: T2, recombinant human BCMA-his fusion protein (ACRO Biosystem, Cat. No. BCA-H522y) (human, UniProt Q02223 1-54); assay: ELISA, coated antigen
T2 construct: extracellular domain; Bought protein; also called huBCMA-his; hu BCMA-his; not shown: His tag
T2 sequence (looked up): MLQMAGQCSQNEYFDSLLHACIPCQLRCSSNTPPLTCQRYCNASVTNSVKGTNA
Description: Procedures: huBCMA-his and cynoBCMA-his antigens were prepared into 0.5 μg/mL coating solutions with PBS (pH 7.4). The coating solutions were added to a microplate at 100 μL/well and incubated at 4° C. overnight. The residual coating solution was discarded before 3% BSA was added at 300 μL/well, and the plate was blocked for 3 h at room temperature. The microplate was washed once with PB ST at 300 The stock humanized monoclonal antibody solutions were serially 3-fold diluted to the 11th concentration. The dilutions were added to the microplate at 100 μL/well. After a 1-h incubation at room temperature, the microplate was washed thrice with PBST at 300 The HRP-conjugated 6*His, His-Tag antibody was 25,000-fold diluted with 1% BSA-PBST and added at 100 After another 1-h incubation at room temperature, the microplate was washed thrice with PB ST at 300 μL/well and dried. The TMB chromogenic solution was added at 100 μL. After a 5-min reaction at room temperature, 2 M H2504 was added at 100 μL/well to terminate the reaction. The microplate was placed on a microplate reader (Molecular Devices, SPECTRA Max plus 384) and the absorbance OD450 value was read at 450 nm wavelength.

[3] = molecular target: T3, recombinant cynomolgus monkey cynoBCMA-his (ACRO Biosystem, Cat. No. BCA-052H7) (cynomolgus monkey, UniProt A0A2K5UD97 1-53); assay: competitive ELISA, coated cynoBCMA-his, competitor 83A10-biotin
T3 construct: extracellular domain; Bought protein; also called cynomolgus/rhesus macaque BCMA/TNFRSF17 protein; not shown: His tag
T3 sequence (A0A2K5UD97 entry or part of it): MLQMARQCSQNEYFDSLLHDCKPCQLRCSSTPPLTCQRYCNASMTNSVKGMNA

[4] = molecular target: T4, recombinant cynomolgus monkey BCMA-mFc (cynomolgus monkey; mouse); assay: indirect ELISA, coated antigen
T4 construct: also called cynoBCMA-mFc
T4 sequence (chain, as listed by the source limits assumed): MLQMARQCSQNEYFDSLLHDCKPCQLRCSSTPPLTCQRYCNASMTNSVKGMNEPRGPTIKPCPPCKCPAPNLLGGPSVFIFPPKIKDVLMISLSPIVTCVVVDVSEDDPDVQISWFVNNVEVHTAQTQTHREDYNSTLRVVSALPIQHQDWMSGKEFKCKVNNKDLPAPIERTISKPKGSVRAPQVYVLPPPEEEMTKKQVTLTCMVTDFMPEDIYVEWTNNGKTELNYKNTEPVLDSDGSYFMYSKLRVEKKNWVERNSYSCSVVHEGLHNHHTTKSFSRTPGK
Description: Procedures: Human, mouse and monkey BCMA antigens were prepared into 0.5 μg/mL coating solutions with PBS buffer. The coating solutions were added to a microplate at 100 μL/well and incubated at 4° C. overnight. The residual coating solution was discarded before 3% BSA was added at 300 μL/well, and the plate was blocked for 3 h at room temperature. The microplate was washed once with PB ST (PBS containing 0.1% of TWEEN 20) at 300 μL/well. The human-mouse chimeric monoclonal antibodies were serially 3-fold diluted from 10 μg/mL to the 9th concentration. The dilutions were added to the microplate at 100 μL/well. After a 1-h incubation at room temperature, the microplate was washed thrice with PB ST at 300 μL/well. The mouse anti-human IgG Fc antibody [HRP] mAb was 25,000-fold diluted with 1% BSA-PBST and added at 100 μL/well. After another 1-h incubation at room temperature, the microplate was washed thrice with PBST at 300 μL/well and dried. The TMB chromogenic solution was added at 100 μL/well. After a 5-min reaction at room temperature, 2 M H₂SO₄ was added at 100 μL/well to terminate the reaction. The microplate was placed on a microplate reader (Molecular Devices, SPECTRA Max plus 384) and the absorbance OD450 value was read at 450 nm wavelength.

[5] = molecular target: T5, cynomolgus monkey BCMA on HEK293 cynoBCMA cells (cynomolgus monkey, UniProt A0A2K5UD97 1-183); assay: flow cytometry on HEK293 cynoBCMA cells
T5 construct: whole, on cells
T5 sequence (A0A2K5UD97 entry or part of it): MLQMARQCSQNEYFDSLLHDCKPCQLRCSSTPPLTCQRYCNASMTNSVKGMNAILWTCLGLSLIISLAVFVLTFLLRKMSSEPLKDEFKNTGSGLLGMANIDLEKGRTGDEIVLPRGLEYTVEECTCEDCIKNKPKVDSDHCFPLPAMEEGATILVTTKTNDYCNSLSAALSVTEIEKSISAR
Description: Procedures: The cells were resuspended in PBS, and the cell density was adjusted to 2×10^5 cells/well. Human-mouse chimeric monoclonal antibodies were added to a 96-well plate at 50 μL/well and serially 3-fold diluted from 3000 nM to the 9th concentration. The plate was incubated for 1 h at 4° C. 150 μL of precooled PBS containing 1% of FBS was added into the 96-well plate after the co-incubation with the primary antibody was finished. The mixtures were centrifuged at 300×g for 5 min and the supernatants were discarded. The above procedures were repeated once. The fluorescent secondary antibody PE anti-human IgG Fc (Biolegend, 409304) was added at 80 μL/well. The plate was incubated at 4° C. for 30 min. 150 μL of precooled PBS containing 1% of FBS was added into the 96-well plate after the co-incubation with the secondary antibody was finished. The 96-well plate was centrifuged at 300×g for 5 min and the supernatants were discarded. The above procedures were repeated once. The cells were resuspended in 100 μL of PBS containing 1% of FBS and detected on a flow cytometry (BD Accuri™ C6).

Binder	EC50 [1]	EC50 [2]	IC50 [3]	EC50 [4]	EC50 [5]
B1	5.7 nM	0.0257 nM	–	–	–
B2	8.25 nM	0.0155 nM	1.05 mg/L	0.723 nM	2.66 nM
